Bridge positions count the residues as written; N and C are the ends. Square brackets hold non-standard residues; d marks the D form. Ends that are not written are not given here. I, II: the chains in the order shown.
B1: PIE7 (peptide)
peptide: Ac-[dK]G[dA][dC][dD][dY][dP][dE][dW][dQ][dW][dL][dC][dA][dA]-NH2
modifications: disulfide 4-13 (inferred)
B2: C5C(PIE7-GK)3 (peptide)
peptide 1: G[dA][dC][dD][dY][dP][dE][dW][dQ][dW][dL][dC][dA][dA]G[dK]
peptide 2: G[dA][dC][dD][dY][dP][dE][dW][dQ][dW][dL][dC][dA][dA]G[dK][dK]
modifications: disulfide I:3-I:12, II:3-II:12 (inferred); also: trimer: two chain 1 copies joined via C-terminal Lys by PEG5 spacers to the C-terminal Lys of central chain 2
B3: PEG-(PIE2-AAA)2 (peptide)
peptide: Ac-[dK]G[dA][dC][dD][dY][dP][dE][dW][dR][dW][dL][dC][dA][dA][dA]-NH2
modifications: disulfide 4-13 (inferred); also: dimer: N-terminal Lys of both peptides joined by bis(NHS-ester)PEG crosslinker
B4: PEG-(PIE7)2 (peptide)
peptide: Ac-[dK]G[dA][dC][dD][dY][dP][dE][dW][dQ][dW][dL][dC][dA][dA]-NH2
modifications: disulfide 4-13 (inferred); also: dimer: N-terminal Lys of both peptides joined by Bis-dPEG9 NHS ester crosslinker
B5: 2K-PIE2 (peptide)
peptide: Ac-[dK][dK]G[dA][dC][dD][dY][dP][dE][dW][dR][dW][dL][dC][dA][dA]-NH2
modifications: disulfide 5-14 (inferred)
B6: PEG-PIE7 (peptide)
peptide: Ac-KG[dA][dC][dD][dY][dP][dE][dW][dQ][dW][dL][dC][dA][dA]-NH2
modifications: disulfide 4-13 (inferred); not fully specified (residue 1)
B7: C9C(PIE7-GK)2 (peptide)
peptide: G[dA][dC][dD][dY][dP][dE][dW][dQ][dW][dL][dC][dA][dA]G[dK]
modifications: disulfide 3-12 (inferred); also: dimer joined C- to C-terminus by PEG9 spacer on C-terminal Lys
B8: N5N(PIE7)2 (peptide)
peptide: [dK]G[dA][dC][dD][dY][dP][dE][dW][dQ][dW][dL][dC][dA][dA]
modifications: disulfide 4-13 (inferred); also: dimer joined N- to N-terminus by PEG5 spacer
B9: N5C(PIE7)2 (peptide)
peptide: [dK]G[dA][dC][dD][dY][dP][dE][dW][dQ][dW][dL][dC][dA][dA]
modifications: disulfide 4-13 (inferred); also: dimer joined N- to C-terminus by PEG5 spacer
B10: C5C(PIE7-GK)2 (peptide)
peptide: G[dA][dC][dD][dY][dP][dE][dW][dQ][dW][dL][dC][dA][dA]G[dK]
modifications: disulfide 3-12 (inferred); also: dimer joined C- to C-terminus by PEG5 spacer on C-terminal Lys
B11: N0N(PIE7)2 (peptide)
peptide: [dK]G[dA][dC][dD][dY][dP][dE][dW][dQ][dW][dL][dC][dA][dA]
modifications: disulfide 4-13 (inferred); also: dimer joined N- to N-terminus by zero length spacer
B12: N0C(PIE7)2 (peptide)
peptide: [dK]G[dA][dC][dD][dY][dP][dE][dW][dQ][dW][dL][dC][dA][dA]
modifications: disulfide 4-13 (inferred); also: dimer joined N- to C-terminus by zero length spacer
B13: N9N(PIE7)3 (peptide)
peptide: [dK]G[dA][dC][dD][dY][dP][dE][dW][dQ][dW][dL][dC][dA][dA]
modifications: disulfide 4-13 (inferred); also: trimer, N-termini joined by PEG9 spacers
B14: C0C(PIE7-GK)3 (peptide)
peptide 1: G[dA][dC][dD][dY][dP][dE][dW][dQ][dW][dL][dC][dA][dA]G[dK]
peptide 2: G[dA][dC][dD][dY][dP][dE][dW][dQ][dW][dL][dC][dA][dA]G[dK][dK]
modifications: disulfide I:3-I:12, II:3-II:12 (inferred); also: trimer: two chain 1 copies joined via C-terminal Lys by zero length spacers to the C-terminal Lys of central chain 2
B15: PIE7-GK long claw (peptide)
peptide: G[dA][dC][dD][dY][dP][dE][dW][dQ][dW][dL][dC][dA][dA]G[dK]
modifications: disulfide 3-12 (inferred); also: three peptides attached to central scaffold LC-TSAT (six-atom spacer), site not given here
B16: PIE7-GK short claw (peptide)
peptide: G[dA][dC][dD][dY][dP][dE][dW][dQ][dW][dL][dC][dA][dA]G[dK]
modifications: disulfide 3-12 (inferred); also: three peptides attached directly to central scaffold TSAT, site not given here
B17: D10-p5 (peptide)
peptide: Ac-[dK][dK]G[dA][dC][dE][dL][dL]G[dW][dE][dW][dA][dW][dL][dC][dA][dA]-NH2
modifications: disulfide 5-16 (inferred)
B18: PIE2-AAA (peptide)
peptide: Ac-[dK]G[dA][dC][dD][dY][dP][dE][dW][dR][dW][dL][dC][dA][dA][dA]-NH2
modifications: disulfide 4-13 (inferred)
B19: PIE2 (peptide)
peptide: Ac-[dK]G[dA][dC][dD][dY][dP][dE][dW][dR][dW][dL][dC][dA][dA]-NH2
modifications: disulfide 4-13 (inferred)
B20: PIE8 (peptide)
peptide: Ac-[dK]G[dA][dC][dD][dY][dK][dE][dW][dQ][dW][dL][dC][dA][dA]-NH2
modifications: disulfide 4-13 (inferred)

Biological target: HIV-1 gp41 (JRFL strain) (HIV-1 JRFL)
Assay: cell-based or functional assay

B1 was tested, and the “IC50 (JRFL), viral entry” value was 24400 nM.

For B1, the “fold reduction in potency against JRFL compared with HXB2” value was roughly 40 fold.

In the case of B2, the “fold difference in potency against JRFL between C5C-PIE7-trimer and N9N-PIE7-trimer” value is reported as roughly 35 fold.

Biological target: T1, HIV-1 gp41 (HXB2 strain) (HIV-1 HXB2, UniProt P04578 512-856)
Assay: cell-based or functional assay

With B3 the “IC50 (HXB2), single-cycle viral infectivity assay” value was 21 nM.

First: B3
Second: B4
The “fold improvement of IC50 over the corresponding monomer” value of the first is lower: roughly 70 fold for the first, roughly 325 fold for the second.

In the case of B1, the “fold potency against D10-p5, viral entry (HXB2)” value is reported as roughly 15 fold.

For B5, the “fold decrease in fold potency against PIE2, viral entry (HXB2)” value was roughly 2 fold.

B6 was tested, and the “fold reduction in potency against unmodified PIE7, viral entry (HXB2)” value was roughly 1.5 fold.

Biological target: HIV-1 gp41 (JRFL strain) (HIV-1 JRFL)
Assay: cell-based or functional assay
Remark: another data set of the same source

Going from B4 to B1, the “IC50 (JRFL), pseudovirion entry” value rises from 2300 nM to 24000 nM (10-fold).

First: B2
Second: B7
The “IC50 (JRFL), pseudovirion entry” value of the first is 32-fold lower: 6.73 nM for the first, 215 nM for the second.

First: B8
Second: B9
The “IC50 (JRFL), pseudovirion entry” value of the first is 4.7-fold higher: 1410 nM for the first, 300 nM for the second.

First: B10
Second: B11
The “IC50 (JRFL), pseudovirion entry” value of the first is 5.4-fold lower: 203 nM for the first, 1090 nM for the second.

Compared with B12, B13 is 1.8-fold lower in “IC50 (JRFL), pseudovirion entry” value: 402 nM for the first, 220 nM for the second.

B14 and B15 are within 1.5-fold of each other in “IC50 (JRFL), pseudovirion entry” value: 16.1 nM for the first, 20.6 nM for the second.

With B16 the “IC50 (JRFL), pseudovirion entry” value was 86.6 nM.

Biological target: T1, HIV-1 gp41 (HXB2 strain)
Assay: cell-based or functional assay
Remark: another data set of the same source

Compared with B4, B1 is 330-fold higher in “IC50 (HXB2), pseudovirion entry” value: 1.9 nM for the first, 620 nM for the second.

Going from B2 to B7, the “IC50 (HXB2), pseudovirion entry” value rises from 0.13 nM to 0.354 nM (2.7-fold).

First: B8
Second: B9
The “IC50 (HXB2), pseudovirion entry” value of the first is 2-fold higher: 1.13 nM for the first, 0.575 nM for the second.

Compared with B10, B11 is 2.3-fold higher in “IC50 (HXB2), pseudovirion entry” value: 0.355 nM for the first, 0.801 nM for the second.

First: B12
Second: B13
The “IC50 (HXB2), pseudovirion entry” value of the first is 2.1-fold higher: 0.534 nM for the first, 0.25 nM for the second.

B14 and B15 are within 1.5-fold of each other in “IC50 (HXB2), pseudovirion entry” value: 0.117 nM for the first, 0.124 nM for the second.

In the case of B16, the “IC50 (HXB2), pseudovirion entry” value is reported as 0.234 nM.

Biological target: T1, HIV-1 gp41 (HXB2 strain)
Assay: cell-based or functional assay
Remark: another data set of the same source

Going from B17 to B4, the “IC50 (HXB2), single-cycle viral infectivity assay” value falls from 9510 nM to 1.9 nM (5000-fold).

Compared with B1, B5 is 4.1-fold higher in “IC50 (HXB2), single-cycle viral infectivity assay” value: 620 nM for the first, 2570 nM for the second.

Going from B6 to B18, the “IC50 (HXB2), single-cycle viral infectivity assay” value rises from 940 nM to 1440 nM (1.5-fold).

B19 and B20 are within 1.5-fold of each other in “IC50 (HXB2), single-cycle viral infectivity assay” value: 1320 nM for the first, 1680 nM for the second.

Reference: US20100184663A1 (UNIVERSITY OF UTAH RESEARCH FOUNDATION, published 2010)
